Data reported in PMC9172573, “Covalent labeling of a chromatin reader domain using proximity-reactive cyclic peptides†” (Chemical Science, 2022).
Where a chain is given by its changes, count along the chain named. Numbers in names are those of the source. Square brackets hold non-standard residues; d marks the D form. Ends that are not written are not given here. Peptide text beside a SMILES is read from it. Lys(Me3) = C[N+](C)(C)CCCC[C@H](N)C(=O)O; fluorescent label = not defined here; Arg(Me) = CNC(=N)NCCC[C@H](N)C(=O)O; Aib = CC(C)(N)C(=O)O; Me3 = trimethyl

Columns and labels:
[1] = molecular target: recombinant His6-MBP-PHD3 (PHD3 domain of KDM5A) (Homo sapiens, UniProt P29375)
[2] = molecular target: His6-MBP-PHD3 (PHD3 domain of histone demethylase KDM5A) (UniProt P29375); assay: fluorescence polarisation; competition: recombinant His6-MBP-PHD3 incubated with the 10mer H3K4me3 tracer (C-terminal fluorescent label), then varying concentrations of the competing peptide; Ki
trypsin = trypsin stability assay; type: in vitro ADME; settings: peptide and trypsin 1:1 w/w, 1x PBS, RT, HPLC
Protocol: Trypsin stability assay: Peptide and trypsin (1:1 w/w) were mixed in 1x PBS buffer and the resulting mixture was incubated at RT. Proteolysis reactions at a given time point was quenched by adding HCl. The proteolysis process was monitored by subjecting the quenched mixture onto r everse-phase HPLC column monitoring at 2 14 nm [H2O (A):MeCN (B); 5% to 100% solvent B over 23 min].
Fig. S2a: Chromatograms of WT H3K4me3 hexapeptide ( 1) before and after incubation with trypsin ( t = < 5 min).
(1 picture or pasted object on this page, not shown here)

[3] = molecular target: His6-MBP-PHD3 (PHD3 domain of histone demethylase KDM5A) (UniProt P29375); assay: FP
[4] = oxyguanidino / guanidino side-chain group; cited from earlier work
[5] = molecular target: T1, His6-MBP-PHD3 (PHD3 domain of histone demethylase KDM5A) (UniProt P29375 1609-1659); assay: FP
T1 chain: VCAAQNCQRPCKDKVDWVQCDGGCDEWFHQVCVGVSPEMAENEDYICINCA

[6] = molecular target: T1, His6-MBP-PHD3 (PHD3 domain of histone …); assay: FP
[7] = molecular target: T2, His6-MBP-PHD3 (PHD3 domain of histone demethylase KDM5A) (UniProt P29375 1609-1659); assay: fluorescence polarisation; competition: recombinant His6-MBP-PHD3 incubated with the 10mer H3K4me3 tracer (C-terminal fluorescent label), then varying concentrations of the competing peptide; Ki; settings: both partners purified
T2 construct: KDM5A, third (C-terminal) PHD finger, PHD3; holds K1620, K1622, W1625, W1635; also called recombinant His6-MBP-PHD3 protein; KDM5A-PHD3; source: recombinant; not shown: His6, N-terminal, kept; MBP, N-terminal, kept
T2 sequence: T1 chain

PHD3 K1620A = molecular target: T3, PHD3 K1620A (UniProt P29375 1609-1659, K1620A); assay: FP
T3 sequence: T1 chain with K12A

[8] = molecular target: T1, His6-MBP-PHD3 (PHD3 domain of histone …); assay: FP
PHD3 K1622A = molecular target: T4, PHD3 K1622A (UniProt P29375 1609-1659, K1622A); assay: FP
T4 sequence: T1 chain with K14A

[9] = molecular target: T5, PHD3 double mutant K1620A/K1622A (UniProt P29375 1609-1659, K1620A | K1622A); assay: FP
T5 sequence: T1 chain with K12A, K14A

Q: Which Ki [1] does the source give for `C[C@H](N)C(=O)N[C@@H](CCCNC(=N)N)C(=O)N[C@H](C(=O)N[C@@H](CCCC[N+](C)(C)C)C(=O)N[C@@H](CCC(N)=O)C(=O)N[C@@H](C)C(=O)N[C@@H](C)C(=O)N[C@@H](CCCNC(=N)N)C(=O)N[C@@H](CCCCN)C(=O)N[C@@H](CO)C(N)=O)[C@@H](C)O` [T6A] here?
A: 150 ± 47 nM

Q: Which Ki [2] does the source give for “H3K4me3 6mer peptide 9 (R2 replaced with homo-arginine) (from UniProt P68431 2-7)” here?
A: 740 nM

Q: Which tryptic stability (trypsin) does the source give for `C[C@H](N)C(=O)N[C@@H](CCCNC(=N)N)C(=O)N[C@H](C(=O)N[C@@H](CCCC[N+](C)(C)C)C(=O)N[C@@H](CCC(N)=O)C(=O)N[C@H](C(N)=O)[C@@H](C)O)[C@@H](C)O` [compound 1, ARTK(me3)QT] (H-ART[Lys(Me3)]QT-NH2) here?
A: highly susceptible to tryptic digestion

Q: With `C[C@@H](O)[C@H](NC(=O)[C@H](CCC(N)=O)NC(=O)[C@H](CCCC[N+](C)(C)C)NC(=O)[C@@H](NC(=O)[C@H](CCCNC(=N)N)NC(=O)[C@@H]1CCCN1)[C@@H](C)O)C(N)=O` [compound 6] (H-PRT[Lys(Me3)]QT-NH2) as the molecule, how does the Ki [1] read?
A: 2700 ± 640 nM

Q: For “H3K4me3 6mer peptide 8 (R2 replaced with canavanine) (from UniProt P68431 2-7)”, which Ki [2] is on record?
A: 2300 nM

Q: Which Ki [3] does the source give for “H3K4me3 6mer peptide 4 (A1 sidechain modified) (from UniProt P68431 2-7)” here?
A: 12000 nM

Q: With `NC(N)=NCCCC[C@H](N)C(=O)O` [homo-arginine] as the molecule, how does the pKa [4] read?
A: ~12.48

Q: For `N=C(N)NOCC[C@H](N)C(=O)O` [canavanine], which pKa [4] is on record?
A: 7.01

Q: Which Ki [2] does the source give for “H3 6mer peptide 14 (K4me3 replaced with homo-arginine) (from UniProt P68431 2-7)” here?
A: 690 nM

Q: With `C[C@@H](O)[C@H](NC(=O)[C@H](CCC(N)=O)NC(=O)[C@H](CCCC[N+](C)(C)C)NC(=O)[C@@H](NC(=O)[C@H](CCCNC(=N)N)NC(=O)[C@@H](N)CO)[C@@H](C)O)C(N)=O` [compound 5] (H-SRT[Lys(Me3)]QT-NH2) as the molecule, how does the Ki [1] read?
A: 1700 ± 300 nM

Q: For `N=C(N)NCCC[C@H](N)C(=O)O` [arginine], which pKa [4] is on record?
A: ~12.48

Q: Which Ki [5] does the source give for ART[Lys(Me3)]QTAR (not fully specified) [8mer] here?
A: 54 nM

Q: With ARV[Lys(Me3)]QT [H3K4me3 6mer peptide 13 (T3V)] as the molecule, how does the Ki [6] read?
A: 240 nM

Q: With ART[Lys(Me3)]QTARK (not fully specified) [9mer] as the molecule, how does the Ki [5] read?
A: 15 nM

Q: For [Aib]RT[Lys(Me3)]QT [2-aminoisobutyric acid-containing peptide 7], which Ki [6] is on record?
A: 310 nM

Q: With ARA[Lys(Me3)]QTARKS [H3K4me3 10mer peptide, T3 replaced with Ala] as the molecule, how does the Ki [5] read?
A: 650 nM

Q: For A[Arg(Me)]T[Lys(Me3)]QT [H3K4me3 6mer peptide 10 (R2 guanidino group monomethylated)], which Ki [6] is on record?
A: 220 nM

Q: With ARTK(Me3)QT [hexapeptide ARTK(me3)QT (1)] as the molecule, how does the Ki [7] read?
A: 130 nM

B1: sulfone cyclopeptide C-20c (peptide, UniProt P68431 2-7, looked up)
peptide: ARTKQC
modifications: not fully specified; Cys at 6; ε-amino group of dimethyllysine 4 stapled to the Cys6 sulfur with 1,2-bis(bromomethyl)benzene, thioether oxidised to the sulfone
notes: Full-length, cleaved form of intermediate C-20; also called series C; source: synthetic peptide, Fmoc-SPPS on Rink amide resin
Q: Which “fold decrease in binding affinity (against the thioether C-18c, as read)” value [7] does the source give for B1 here?
A: 5 fold

Q: With ART[Lys(Me3)]QTARAS [K9A] as the molecule, how does the Ki [5] read?
A: 28 nM

Q: With ART[Lys(Me3)]QTA (not fully specified) [7mer] as the molecule, how does the Ki [5] read?
A: 43 nM

Q: For ART[Lys(Me3)]QTAAKS [R8A], which Ki [5] is on record?
A: 69 nM

Q: With ART[Lys(Me3)]QTARKA [S10A] as the molecule, how does the Ki [5] read?
A: 12 nM

Q: With ARTAQTARKS [H3 10mer peptide, K4 replaced with Ala] as the molecule, how does the Ki [5] read?
A: 30000 nM

Q: Which Ki [5] does the source give for ART[Lys(Me3)]ATARKS [H3K4me3 10mer peptide Q5A] here?
A: 59 nM

Q: Which Ki [6] does the source give for Me-ART[Lys(Me3)]QT [N-terminally methylated H3K4me3 6mer peptide (3)] here?
A: 150 nM

Q: With ART[Lys(Me3)]QTARKS-{fluorescent label} (reading uncertain) [10mer H3K4me3 tracer containing a C-terminal fluorescent label] as the molecule, how does the Kd (PHD3 K1620A) read?
A: 58 nM

Q: What about the Kd [8] of the same molecule?
A: 83 nM

Q: What about the Kd (PHD3 K1622A) of the same molecule?
A: 160 nM

Q: And the Kd [9]?
A: 71 nM

Q: For Ac-ART[Lys(Me3)]QT [N-terminally acetylated H3K4me3 6mer peptide (2)], which Ki [6] is on record?
A: 76000 nM

Q: With AAT[Lys(Me3)]QTARKS [H3K4me3 10mer peptide, R2 replaced with Ala] as the molecule, how does the Ki [5] read?
A: 560 nM

Q: With ART[Lys(Me3)] (not fully specified) [4mer] as the molecule, how does the Ki [5] read?
A: 2700 nM

Q: With ART[Lys(Me3)]YT [H3K4me3 6mer peptide 15 (Q5 replaced with tyrosine)] as the molecule, how does the Ki [6] read?
A: 440 nM
